Assay results from US20080119412A1 (NONO, published 2008).

What was measured:
Experiment in all cases: G assay
[1] = target: …
[2] = target: …; remark: listed apart in the source
[3] = target: Peptide #1829, biotin-…
[4] = target: Peptide #1791, biotin-…
[5] = target: …; remark: listed apart in the source
[6] = target: …; remark: listed apart in the source
[7] = target: Peptide #1852, biotin-[…]
[8] = target: Peptide #1841, biotin-…
[9] = target: Peptide #1846, biotin-[…]

Measured: binding result

B1: GST-Syntrophin 1 alpha PDZ domain 1 fusion protein (other, not shown: a dimerising Fc or GST; small tags and cut ends)
chain: QRRRVTVRKADAGGLGISIKGGRENKMPILISKIFKGLAADQTEALFVGDAILSVNGEDLSSATHDEAVQVLKKTGKEVVLEVKYMKDVSPYFK
notes: also called Syntrophin 1 alpha d1 (52.5); Syntrophin 1 alpha D1
binds: [1]

B2: GST-INADL PDZ domain 3 fusion protein (other, not shown: a dimerising Fc or GST; small tags and cut ends)
chain: PGSDSSLFETYNVELVRKDGQSLGIRIVGYVGTSHTGEASGIYVKSIIPGSAAYHNGHIQVNDKIVAVDGVNIQGFANHDVVEVLRNAGQVVHLTLVRRKTSSSTSRIHRD
notes: also called INADL d3 (96.3); INADL D3
binds: [2] | [3]

B3: GST-ZO-1 PDZ domain 2 fusion protein (other, not shown: a dimerising Fc or GST; small tags and cut ends)
chain: ISSQPAKPTKVTLVKSRKNEEYGLRLASHIFVKEISQDSLAARDGNIQEGDVVLKINGTVTENMSLTDAKTLIERSKGKLKMVVQRDRATLLNSS
notes: also called ZO-1 d2 (241.3); ZO-1 D2
not listed: [9]
binds: all other assays above

B4: GST-PAR3 PDZ domain 3 fusion protein (other, not shown: a dimerising Fc or GST; small tags and cut ends)
chain: PREFLTFEVPLNDSGSAGLGVSVKGNRSKENHADLGIFVKSIINGGAASKDGRLRVNDQLIAVNGESLLGKTNQDAMETLRRSMSTEGNKRGMIQLIVASRISKCNELKSNSS
notes: also called PAR3 d3 (278.1); PAR3 D3
binds: [2] | [1] | [4] | [5]

B5: GST-RIM2 PDZ domain 1 fusion protein (other, not shown: a dimerising Fc or GST; small tags and cut ends)
chain: TLNEEHSHSDKHPVTWQPSKDGDRLIGRILLNKRLKDGSVPRDSGAMLGLKVVGGKMTESGRLCAFITKVKKGSLADTVGHLRPGDEVLEWNGRLLQGATFEEVYNIILESKPEPQVELVVSRPIG
notes: also called RIM2 (177.4); RIM-2 d1
not listed: [1]
binds: all other assays above
